According to patent US20170224769A1:

Molecular target: high mobility group box 1 protein (HMGB1) (Homo sapiens (Human)) (UniProt P09429)
Experiment: SPR (Reichert SR7500DC), HMGB1 coated on CMDH chip

UniProt P09429, sequence (P09429 whole entry, form in doubt): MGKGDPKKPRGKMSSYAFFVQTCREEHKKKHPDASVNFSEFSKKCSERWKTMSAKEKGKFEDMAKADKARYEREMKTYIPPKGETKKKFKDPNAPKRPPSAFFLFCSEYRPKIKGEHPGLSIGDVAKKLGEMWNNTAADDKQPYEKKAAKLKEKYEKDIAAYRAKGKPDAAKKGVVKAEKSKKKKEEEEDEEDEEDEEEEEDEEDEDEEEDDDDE

With “rHMGB1A-his6 (high mobility group box 1 A domain, C-terminal six histidines) (from UniProt P09429 1-164)” the Kd was 2800 nM, the koff was 0.00394 s⁻¹ and the kon was 1400 M⁻¹ s⁻¹.
With “rTAT-HMGB1A-his6 (fusion of the TAT peptide and the A box domain of HMGB1, C-terminal six histidines) (from UniProt P04608 49-57; P09429 1-164)” the Kd was 75.1 nM, the koff was 0.000691 s⁻¹ and the kon was 9200 M⁻¹ s⁻¹.
